Article doi:10.1101/2023.12.14.571518 (bioRxiv, 2023)
Blank lines part the entries; values can stand above or below the binder they belong to.

What was measured:
MZT2:GST-GCP2-NHD = MZT2:GST-GCP2-NHD (human, UniProt Q6P582 1-158; Q9BSJ2 1-110); assay: pull-down
cryo-EM structure = target: the molecule itself; assay: cryo-EM structure

Chain of MZT2:GST-GCP2-NHD (Q6P582 whole entry, chain 1 of 2): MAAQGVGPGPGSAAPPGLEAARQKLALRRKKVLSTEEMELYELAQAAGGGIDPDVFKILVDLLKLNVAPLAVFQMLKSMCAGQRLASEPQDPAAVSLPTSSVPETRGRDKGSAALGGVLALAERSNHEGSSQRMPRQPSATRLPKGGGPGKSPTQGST
Chain of MZT2:GST-GCP2-NHD (Q9BSJ2 1-110, chain 2 of 2): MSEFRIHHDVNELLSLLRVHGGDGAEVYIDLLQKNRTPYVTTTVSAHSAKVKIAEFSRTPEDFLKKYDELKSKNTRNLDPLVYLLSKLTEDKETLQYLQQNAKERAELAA

Kd (MZT2:GST-GCP2-NHD): ≥ 10 µM
B1: CDK5RAP2(44-93) (domain or fragment, human)
chain: SNIGSGGTPSTGSSLPNVSEETVSPTRARNMKDFENQITELKKENFNLKLRIYFLEERMQQEFH

B2: CDK5RAP2(51-100) (domain or fragment, human, UniProt Q96SN8 51-100, looked up)
chain: TVSPTRARNMKDFENQITELKKENFNLKLRIYFLEERMQQEFHGPTEHIY
binding result (cryo-EM structure): binds
